Results: article PMC8093215

Target: human DNMT1 BAH1 domain (residues 728-900), Y775A (human) (UniProt P26358)
Test: ITC; 1 mM H4K20me peptide titrated over 0.1 mM hDNMT1 BAH1 or BAH2 domain; 25 mM Tris-HCl pH 7.5, 100 mM NaCl, 2 mM DTT; 5 °C; single-site binding mode

Chain of human DNMT1 BAH1 domain (residues 728-900), Y775A (human) (P26358 728-900 Y775A): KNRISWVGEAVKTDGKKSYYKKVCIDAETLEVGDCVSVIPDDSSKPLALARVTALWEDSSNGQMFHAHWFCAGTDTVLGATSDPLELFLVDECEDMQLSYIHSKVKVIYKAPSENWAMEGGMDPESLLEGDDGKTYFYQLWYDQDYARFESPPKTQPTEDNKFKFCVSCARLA

Kd: 361 µM
stoichiometry N: 1
Substance: H4(14-25)K20me3 peptide (from UniProt P62805 15-26)
